Source: patent US20170165339A1 (IMMATICS BIOTECHNOLOGIES, published 2017)

Target: HLA-A*02 (human)
Experiment: UV peptide-exchange ELISA, yield grade

SLTEVSLPL [SLTEVSLPL (SEQ ID NO: 45)]
peptide exchange yield: 50 to 75%
